Paper PMC7229837, “Molecular architecture of the DNA-binding sites of the P-loop ATPases MipZ and ParA from Caulobacter crescentus”
Positions count from the first letter of the chain named.

How the values were obtained:
Settings in all cases: protein: recombinant; tags: C-terminal His6 (pET21a); chain copies: 2; label: Cy3 (5') on strand 1; blunt
[1] = biological target: T1, MipZ R194A (Caulobacter crescentus, UniProt Q9A6C9 1-278, R194A); test: MST; hardly any binding; EMSA: 10 mM HEPES/NaOH pH 7.2, 150 mM NaCl, 10 mM MgCl2, 0.05% Tween 20, 0.46 mM ATPgS, room temp; BLI: 50 mM HEPES/NaOH pH 7.2, 50 mM NaCl, 5 mM MgCl2, 0.1 mM
T1 sequence: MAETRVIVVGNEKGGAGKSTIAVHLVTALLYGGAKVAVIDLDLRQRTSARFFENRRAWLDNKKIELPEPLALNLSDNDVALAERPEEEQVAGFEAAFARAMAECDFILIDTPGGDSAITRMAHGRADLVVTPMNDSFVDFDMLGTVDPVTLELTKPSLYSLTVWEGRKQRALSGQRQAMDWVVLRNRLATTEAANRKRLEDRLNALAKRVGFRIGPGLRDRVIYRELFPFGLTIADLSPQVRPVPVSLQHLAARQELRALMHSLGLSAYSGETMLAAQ

[2] = biological target: T2, MipZ R198A (Caulobacter crescentus, UniProt Q9A6C9 1-278, R198A); test: as above
T2 sequence: T1 sequence with A194R, R198A

[3] = biological target: T3, MipZ R221A (Caulobacter crescentus, UniProt Q9A6C9 1-278, R221A); test: as above
T3 sequence: T1 sequence with A194R, R221A

[4] = biological target: T4, MipZ R219A (Caulobacter crescentus, UniProt Q9A6C9 1-278, R219A); test: MST; low-affinity group, KD >> 10 uM; EMSA: 10 mM HEPES/NaOH pH 7.2, 150 mM NaCl, 10 mM MgCl2, 0.05% Tween 20, 0.46 mM ATPgS, room temp; BLI: 50 mM HEPES/NaOH pH 7.2, 50 mM NaCl, 5 mM MgCl2, 0.1 mM
T4 sequence: T1 sequence with A194R, R219A

[5] = biological target: T5, MipZ L237A (Caulobacter crescentus, UniProt Q9A6C9 1-278, L237A); test: as above
T5 sequence: T1 sequence with A194R, L237A

[6] = biological target: T6, MipZ R242A (Caulobacter crescentus, UniProt Q9A6C9 1-278, R242A); test: as above
T6 sequence: T1 sequence with A194R, R242A

B1: rand-Cy3/rand-rev 26 bp (dsDNA)
DNA 1: GAGGCAGACTAGATCTTCTAGTTCGG
DNA 2: CCGAACTAGAAGATCTAGTCTGCCTC
Q: Does B1 bind [1]?
A: no binding

Q: Does B1 bind [2]?
A: no binding

Q: Does B1 bind [3]?
A: no binding

Q: What about the Kd [4] of the same binder?
A: > 10 µM

Q: What about the Kd [5] of the same binder?
A: > 10 µM

Q: And the Kd [6]?
A: > 10 µM
